# From patent US20180155407A1 (Sanofi, published 2018)
# Numbered stars: 1 amine (or outer) side, 2 acyl side, 3 side chain; on linkers, the order of the positions; unused ones are H or OH. Square brackets hold non-standard residues; d marks the D form. Side chains are listed from the residue outwards. Ends that are not written are not given here. * marks the point of attachment. γGlu = O=C(O)[C@H](CCC(=O)[*:2])N[*:1]; Palmitoyl = CCCCCCCCCCCCCCCC(=O)*; Aib = CC(C)(N)C(=O)O
# T1: human GIP receptor (human, UniProt P48546 22-466)
# T1 sequence (looked up): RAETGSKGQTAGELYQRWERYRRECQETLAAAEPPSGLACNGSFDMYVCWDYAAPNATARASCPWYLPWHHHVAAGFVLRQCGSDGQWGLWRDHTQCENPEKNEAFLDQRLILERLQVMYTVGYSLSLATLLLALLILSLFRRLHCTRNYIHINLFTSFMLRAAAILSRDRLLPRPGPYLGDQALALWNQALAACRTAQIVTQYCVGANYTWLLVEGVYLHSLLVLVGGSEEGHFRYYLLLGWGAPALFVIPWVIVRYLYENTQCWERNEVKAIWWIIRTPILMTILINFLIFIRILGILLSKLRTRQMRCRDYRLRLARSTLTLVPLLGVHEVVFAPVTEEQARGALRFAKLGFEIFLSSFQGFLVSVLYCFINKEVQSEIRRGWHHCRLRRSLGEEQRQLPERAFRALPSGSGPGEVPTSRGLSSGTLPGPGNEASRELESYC
# How the values were obtained:
# Experiment in all cases: cell-based or functional assay
# human GLP-1 receptor = human GLP-1 receptor (human, UniProt P43220 24-463)
# human glucagon receptor = human glucagon receptor (human, UniProt P47871 26-477)
# human GIP receptor = target: T1, human GIP receptor
# human glucagon receptor, sequence (P47871 26-477): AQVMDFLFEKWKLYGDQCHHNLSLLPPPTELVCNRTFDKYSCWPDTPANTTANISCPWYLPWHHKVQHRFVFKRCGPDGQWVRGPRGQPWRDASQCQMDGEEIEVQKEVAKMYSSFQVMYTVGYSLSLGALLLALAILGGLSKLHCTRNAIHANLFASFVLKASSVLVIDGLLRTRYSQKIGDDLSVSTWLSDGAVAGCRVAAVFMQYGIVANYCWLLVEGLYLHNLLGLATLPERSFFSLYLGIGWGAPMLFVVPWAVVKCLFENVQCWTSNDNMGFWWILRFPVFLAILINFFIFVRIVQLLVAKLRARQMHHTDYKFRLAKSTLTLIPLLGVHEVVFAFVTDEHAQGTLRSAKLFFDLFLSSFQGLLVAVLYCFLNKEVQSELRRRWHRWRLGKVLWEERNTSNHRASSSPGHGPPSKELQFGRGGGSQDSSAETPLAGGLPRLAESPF
Binder,EC50 hGLP-1R (cAMP formation) (human GLP-1 receptor) [pM],EC50 hGlucagon R (cAMP formation) (human glucagon receptor) [pM],EC50 hGIP R (cAMP formation) (human GIP receptor) [pM]
H[Aib]QGTFTSDLSKLK([γGlu-γGlu-Palmitoyl])EEQRQ[Aib]EFIEWLKAGGHPS[Aib]KPPPK-NH2 (N-terminus assumed; SMILES CCCCCCCCCCCCCCCC(=O)N[C@@H](CCC(=O)N[C@@H](CCC(=O)NCCCC[C@H](NC(=O)[C@H](CC(C)C)NC(=O)[C@H](CCCCN)NC(=O)[C@H](CO)NC(=O)[C@H](CC(C)C)NC(=O)[C@H](CC(=O)O)NC(=O)[C@H](CO)NC(=O)[C@@H](NC(=O)[C@H](Cc1ccccc1)NC(=O)[C@@H](NC(=O)CNC(=O)[C@H](CCC(N)=O)NC(=O)C(C)(C)NC(=O)[C@@H](N)Cc1c[nH]cn1)[C@@H](C)O)[C@@H](C)O)C(=O)N[C@@H](CCC(=O)O)C(=O)N[C@@H](CCC(=O)O)C(=O)N[C@@H](CCC(N)=O)C(=O)N[C@@H](CCCNC(=N)N)C(=O)N[C@@H](CCC(N)=O)C(=O)NC(C)(C)C(=O)N[C@@H](CCC(=O)O)C(=O)N[C@@H](Cc1ccccc1)C(=O)N[C@H](C(=O)N[C@@H](CCC(=O)O)C(=O)N[C@@H](Cc1c[nH]c2ccccc12)C(=O)N[C@@H](CC(C)C)C(=O)N[C@@H](CCCCN)C(=O)N[C@@H](C)C(=O)NCC(=O)NCC(=O)N[C@@H](Cc1c[nH]cn1)C(=O)N1CCC[C@H]1C(=O)N[C@@H](CO)C(=O)NC(C)(C)C(=O)N[C@@H](CCCCN)C(=O)N1CCC[C@H]1C(=O)N1CCC[C@H]1C(=O)N1CCC[C@H]1C(=O)N[C@@H](CCCCN)C(N)=O)[C@@H](C)CC)C(=O)O)C(=O)O) [SEQ ID NO: 8],2.2,32.6,5.6
H[Aib]QGTFTSDLSKLK([γGlu-γGlu-Palmitoyl])EEQRQ[Aib]EFIEWLKA[dA]GHPS[Aib]KPPPK-NH2 (N-terminus assumed; SMILES CCCCCCCCCCCCCCCC(=O)N[C@@H](CCC(=O)N[C@@H](CCC(=O)NCCCC[C@H](NC(=O)[C@H](CC(C)C)NC(=O)[C@H](CCCCN)NC(=O)[C@H](CO)NC(=O)[C@H](CC(C)C)NC(=O)[C@H](CC(=O)O)NC(=O)[C@H](CO)NC(=O)[C@@H](NC(=O)[C@H](Cc1ccccc1)NC(=O)[C@@H](NC(=O)CNC(=O)[C@H](CCC(N)=O)NC(=O)C(C)(C)NC(=O)[C@@H](N)Cc1c[nH]cn1)[C@@H](C)O)[C@@H](C)O)C(=O)N[C@@H](CCC(=O)O)C(=O)N[C@@H](CCC(=O)O)C(=O)N[C@@H](CCC(N)=O)C(=O)N[C@@H](CCCNC(=N)N)C(=O)N[C@@H](CCC(N)=O)C(=O)NC(C)(C)C(=O)N[C@@H](CCC(=O)O)C(=O)N[C@@H](Cc1ccccc1)C(=O)N[C@H](C(=O)N[C@@H](CCC(=O)O)C(=O)N[C@@H](Cc1c[nH]c2ccccc12)C(=O)N[C@@H](CC(C)C)C(=O)N[C@@H](CCCCN)C(=O)N[C@@H](C)C(=O)N[C@H](C)C(=O)NCC(=O)N[C@@H](Cc1c[nH]cn1)C(=O)N1CCC[C@H]1C(=O)N[C@@H](CO)C(=O)NC(C)(C)C(=O)N[C@@H](CCCCN)C(=O)N1CCC[C@H]1C(=O)N1CCC[C@H]1C(=O)N1CCC[C@H]1C(=O)N[C@@H](CCCCN)C(N)=O)[C@@H](C)CC)C(=O)O)C(=O)O) [SEQ ID NO: 11],2.3,22.4,3.5
H[Aib]QGTFTSDLSKLK([γGlu-γGlu-Palmitoyl])EEQRQ[Aib]EFIEWLKA[dA]GPPS[Aib]KPPPK-NH2 (N-terminus assumed; SMILES CCCCCCCCCCCCCCCC(=O)N[C@@H](CCC(=O)N[C@@H](CCC(=O)NCCCC[C@H](NC(=O)[C@H](CC(C)C)NC(=O)[C@H](CCCCN)NC(=O)[C@H](CO)NC(=O)[C@H](CC(C)C)NC(=O)[C@H](CC(=O)O)NC(=O)[C@H](CO)NC(=O)[C@@H](NC(=O)[C@H](Cc1ccccc1)NC(=O)[C@@H](NC(=O)CNC(=O)[C@H](CCC(N)=O)NC(=O)C(C)(C)NC(=O)[C@@H](N)Cc1c[nH]cn1)[C@@H](C)O)[C@@H](C)O)C(=O)N[C@@H](CCC(=O)O)C(=O)N[C@@H](CCC(=O)O)C(=O)N[C@@H](CCC(N)=O)C(=O)N[C@@H](CCCNC(=N)N)C(=O)N[C@@H](CCC(N)=O)C(=O)NC(C)(C)C(=O)N[C@@H](CCC(=O)O)C(=O)N[C@@H](Cc1ccccc1)C(=O)N[C@H](C(=O)N[C@@H](CCC(=O)O)C(=O)N[C@@H](Cc1c[nH]c2ccccc12)C(=O)N[C@@H](CC(C)C)C(=O)N[C@@H](CCCCN)C(=O)N[C@@H](C)C(=O)N[C@H](C)C(=O)NCC(=O)N1CCC[C@H]1C(=O)N1CCC[C@H]1C(=O)N[C@@H](CO)C(=O)NC(C)(C)C(=O)N[C@@H](CCCCN)C(=O)N1CCC[C@H]1C(=O)N1CCC[C@H]1C(=O)N1CCC[C@H]1C(=O)N[C@@H](CCCCN)C(N)=O)[C@@H](C)CC)C(=O)O)C(=O)O) [SEQ ID NO: 10],2.4,26.1,5.4
H[Aib]QGTFTSDLSKLK([γGlu-γGlu-Palmitoyl])EEQRQ[Aib]EFIEWLKAGGPPS[Aib]KPPPK-NH2 (N-terminus assumed; SMILES CCCCCCCCCCCCCCCC(=O)N[C@@H](CCC(=O)N[C@@H](CCC(=O)NCCCC[C@H](NC(=O)[C@H](CC(C)C)NC(=O)[C@H](CCCCN)NC(=O)[C@H](CO)NC(=O)[C@H](CC(C)C)NC(=O)[C@H](CC(=O)O)NC(=O)[C@H](CO)NC(=O)[C@@H](NC(=O)[C@H](Cc1ccccc1)NC(=O)[C@@H](NC(=O)CNC(=O)[C@H](CCC(N)=O)NC(=O)C(C)(C)NC(=O)[C@@H](N)Cc1c[nH]cn1)[C@@H](C)O)[C@@H](C)O)C(=O)N[C@@H](CCC(=O)O)C(=O)N[C@@H](CCC(=O)O)C(=O)N[C@@H](CCC(N)=O)C(=O)N[C@@H](CCCNC(=N)N)C(=O)N[C@@H](CCC(N)=O)C(=O)NC(C)(C)C(=O)N[C@@H](CCC(=O)O)C(=O)N[C@@H](Cc1ccccc1)C(=O)N[C@H](C(=O)N[C@@H](CCC(=O)O)C(=O)N[C@@H](Cc1c[nH]c2ccccc12)C(=O)N[C@@H](CC(C)C)C(=O)N[C@@H](CCCCN)C(=O)N[C@@H](C)C(=O)NCC(=O)NCC(=O)N1CCC[C@H]1C(=O)N1CCC[C@H]1C(=O)N[C@@H](CO)C(=O)NC(C)(C)C(=O)N[C@@H](CCCCN)C(=O)N1CCC[C@H]1C(=O)N1CCC[C@H]1C(=O)N1CCC[C@H]1C(=O)N[C@@H](CCCCN)C(N)=O)[C@@H](C)CC)C(=O)O)C(=O)O) [SEQ ID NO: 9],2.6,24.7,5.6
